According to article PMC11542179, “Unraveling the Bivalent and Rapid Interactions Between a Multivalent RNA Recognition Motif and RNA: A Kinetic Approach”:

Columns and labels:
MSI1 RRM1-RRM2 tandem [1] = target: T1, MSI1 RRM1-RRM2 tandem (Homo sapiens, UniProt O43347 1-200); experiment: SPR; 1:1 model (poor fit); SPR, 3'-biotinylated RNA immobilized on dextran sensor chip, protein as analyte; running buffer, salt, pH and temperature not in the material; conditions: protein: recombinant; label: 3'-biotin; linear, single UAG motif
T1 sequence (O43347 1-200): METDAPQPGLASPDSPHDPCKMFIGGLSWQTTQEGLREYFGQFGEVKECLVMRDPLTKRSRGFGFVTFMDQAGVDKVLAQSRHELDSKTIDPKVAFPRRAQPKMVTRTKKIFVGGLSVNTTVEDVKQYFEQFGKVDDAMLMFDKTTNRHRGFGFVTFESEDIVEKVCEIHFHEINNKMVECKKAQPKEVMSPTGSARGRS

MSI1 RRM1-RRM2 tandem [2] = target: T1, MSI1 RRM1-RRM2 tandem; experiment: SPR; KD1, induced fit model; SPR, 3'-biotinylated RNA immobilized on dextran sensor chip, protein as analyte; running buffer, salt, pH and temperature not in the material; conditions: protein: recombinant; label: 3'-biotin; linear, single UAG motif
MSI1 RRM2 [3] = target: T2, MSI1 RRM2 (Homo sapiens, UniProt O43347 104-200); experiment: SPR; 1:1 with mass transport; SPR, 3'-biotinylated RNA immobilized on dextran sensor chip, protein as analyte; running buffer, salt, pH and temperature not in the material; conditions: protein: recombinant, tags: C-terminal Strep-tag, label: 3'-biotin
T2 sequence (O43347 104-200): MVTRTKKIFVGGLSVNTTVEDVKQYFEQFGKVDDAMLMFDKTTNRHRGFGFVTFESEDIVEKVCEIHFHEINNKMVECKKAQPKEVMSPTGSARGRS

MSI1 RRM1 [4] = target: T3, MSI1 RRM1 (Homo sapiens, UniProt O43347 1-103); experiment: as above; conditions: protein: recombinant, tags: N-terminal Strep-tag, label: 3'-biotin
T3 sequence (O43347 1-103): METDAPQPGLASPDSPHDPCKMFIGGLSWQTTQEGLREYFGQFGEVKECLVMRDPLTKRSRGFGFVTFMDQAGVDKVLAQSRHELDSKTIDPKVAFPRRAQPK

MSI1 RRM1-RRM2 tandem [5] = target: T1, MSI1 RRM1-RRM2 tandem; experiment: SPR; KD1 monovalent step, new rapid 2:1 model; SPR, 3'-biotinylated RNA immobilized on dextran sensor chip, protein as analyte; running buffer, salt, pH and temperature not in the material; conditions: protein: recombinant; label: 3'-biotin; linear, single UAG motif
MSI1 RRM1-RRM2 tandem [6] = target: T1, MSI1 RRM1-RRM2 tandem; experiment: SPR; KD1, bivalent analyte model (Table 3 prints 41); SPR, 3'-biotinylated RNA immobilized on dextran sensor chip, protein as analyte; running buffer, salt, pH and temperature not in the material; conditions: protein: recombinant; label: 3'-biotin; linear, single UAG motif
MSI1 RRM1-RRM2 tandem [7] = target: T1, MSI1 RRM1-RRM2 tandem; experiment: SPR; KD1, bivalent analyte model; SPR, 3'-biotinylated RNA immobilized on dextran sensor chip, protein as analyte; running buffer, salt, pH and temperature not in the material; conditions: protein: recombinant, label: 3'-biotin
MSI1 RRM1-RRM2 tandem [8] = target: T1, MSI1 RRM1-RRM2 tandem; experiment: SPR; KD1 monovalent step, new model; SPR, 3'-biotinylated RNA immobilized on dextran sensor chip, protein as analyte; running buffer, salt, pH and temperature not in the material; conditions: protein: recombinant, label: 3'-biotin
MSI1 RRM2 [9] = target: T2, MSI1 RRM2; experiment: SPR; 1.9-500 nM; SPR, 3'-biotinylated RNA immobilized on dextran sensor chip, protein as analyte; running buffer, salt, pH and temperature not in the material; conditions: protein: recombinant; tags: C-terminal Strep-tag; label: 3'-biotin
MSI1 RRM1 [10] = target: T3, MSI1 RRM1; experiment: as above; conditions: protein: recombinant; tags: N-terminal Strep-tag; label: 3'-biotin
MSI1 RRM1-RRM2 tandem [11] = target: T1, MSI1 RRM1-RRM2 tandem; experiment: SPR; 7.8-250 nM; SPR, 3'-biotinylated RNA immobilized on dextran sensor chip, protein as analyte; running buffer, salt, pH and temperature not in the material; conditions: protein: recombinant; label: 3'-biotin

## UUGUUAGUUACCCCUU (ssRNA) [RNA-L1]
MSI1 RRM1-RRM2 tandem [1]
  Kd: 2 nM
MSI1 RRM1-RRM2 tandem [2]
  Kd: 24 nM
MSI1 RRM2 [3]; linear, single UAG motif
  Kd: 25 nM
MSI1 RRM1 [4]; linear, single UAG motif
  Kd: 47 nM
MSI1 RRM1-RRM2 tandem [5]
  Kd: 58 nM
MSI1 RRM1-RRM2 tandem [6]
  Kd: 42 nM

## UUGUCAGUUACCCCUU (ssRNA) [RNA-L1a]
MSI1 RRM2 [3]; linear
  Kd: 123 nM
MSI1 RRM1 [4]; linear
  Kd: 151 nM
MSI1 RRM1-RRM2 tandem [7]; linear
  Kd: 1410 nM
MSI1 RRM1-RRM2 tandem [8]; linear
  Kd: 1170 nM

## AAGCGUUAGUUAUUUAGUCGCUU (structured_RNA) [RNA-HP2a]
MSI1 RRM2 [3]; potential hairpin
  Kd: 37 nM
MSI1 RRM1 [4]; potential hairpin
  Kd: 22 nM
MSI1 RRM1-RRM2 tandem [7]; potential hairpin
  Kd: 45 nM
MSI1 RRM1-RRM2 tandem [8]; potential hairpin
  Kd: 77 nM

## CACUCUGUAGUAUGUAGGGUUUAUUU (structured_RNA) [RNA-HP2b]
MSI1 RRM2 [3]; potential hairpin
  Kd: 26 nM
MSI1 RRM1 [4]; potential hairpin
  Kd: 33 nM
MSI1 RRM1-RRM2 tandem [7]; potential hairpin
  Kd: 144 nM
MSI1 RRM1-RRM2 tandem [8]; potential hairpin
  Kd: 49 nM

## CGGCGCCGC (ssRNA) [RNA C]
MSI1 RRM2 [9]
  binding result: no binding
MSI1 RRM1 [10]
  binding result: no binding
MSI1 RRM1-RRM2 tandem [11]
  binding result: no binding
